Data from the RNAGym collection of RNA variant scans (doi:10.7554/elife.80360).

B1: Twister Ribozyme (parent)
chain: AACACUGCCAAUGCCGGUCCCAAGCCCGGAUAAAAGUGGAGGGGGCGG

Variants of: B1
Assay: self-cleavage, relative activity (ratio to wild type); higher = more cleavage; co-transcriptional

Which self-cleavage does the source give for AACACUGCCAAUGCGGGUCCCAAGCCCGGAUAAAAGUGGAAGGGGCGG [C15G G41A] here?
Its self-cleavage is 0.112.

Which self-cleavage does the source give for AACACUGCCAAUGCGGGUCCCAAGCCCGGAUAAAAGUGGAUGGGGCGG [C15G G41U] here?
The self-cleavage was 0.0559.

With AACACUGCCAAUGCGGGUCCCAAGCCCGGAUAAAAGUGGAGGAGGCGG [C15G G43A] as the variant, how does the self-cleavage read?
Its self-cleavage is 0.0569.

With AACACUGCCAAUGCGGGUCCCAAGCCCGGAUAAAAAUGGAGGGGGCGG [C15G G36A] as the variant, how does the self-cleavage read?
Its self-cleavage is 0.0815.

For AACACUGCCAAUGCGGGUCACAAGCCCGGAUAAAAGUGGAGGGGGCGG [C15G C20A], which self-cleavage is on record?
The self-cleavage was 0.0716.

For AACACUGCCAAUGCGGGUCCGAAGCCCGGAUAAAAGUGGAGGGGGCGG [C15G C21G], which self-cleavage is on record?
The self-cleavage was 0.0959.

With AACACUGCCAAUGCGGGUCCAAAGCCCGGAUAAAAGUGGAGGGGGCGG [C15G C21A] as the variant, how does the self-cleavage read?
Its self-cleavage is 0.077.

With AACACUGCCAAUGCGGGUCCUAAGCCCGGAUAAAAGUGGAGGGGGCGG [C15G C21U] as the variant, how does the self-cleavage read?
The self-cleavage was 0.0717.

For AACACUGCCAAUGCGGGUCCCAAGCCCGGAUAACAGUGGAGGGGGCGG [C15G A34C], which self-cleavage is on record?
The self-cleavage was 0.0577.

For AACACUGCCAAUGCGGGUCCCAAGCCCGGAUAAAAGUGGAGGGGGAGG [C15G C46A], which self-cleavage is on record?
The self-cleavage was 0.0745.

With AACACUGCCAAUGCGGGUCCCAAGCCCGGAUAAAAGUGGAGGGGGGGG [C15G C46G] as the variant, how does the self-cleavage read?
Its self-cleavage is 0.111.

For AACACUGCCAAUGCGGGUCCCAAGCCCGGAUAAAAGUGGAGGGGGUGG [C15G C46U], which self-cleavage is on record?
The self-cleavage was 0.075.

For AACACUGCCAAUGCGGGUCCCAAGCCCGGAUAAAAGUGGCGGGGGCGG [C15G A40C], which self-cleavage is on record?
Its self-cleavage is 0.0616.

With AACACUGCCAAUGCGGGUCCCAAGCCCGGAUAAAAGUGGGGGGGGCGG [C15G A40G] as the variant, how does the self-cleavage read?
The self-cleavage was 0.114.

For AACACUGCCAAUGCGGGUCCCAAGCCCGGACAAAAGUGGAGGGGGCGG [C15G U31C], which self-cleavage is on record?
The self-cleavage was 0.108.

Which self-cleavage does the source give for AACACUGCCAAUGCGGGUCCCAAGCCCGGAGAAAAGUGGAGGGGGCGG [C15G U31G] here?
Its self-cleavage is 0.153.

Which self-cleavage does the source give for AACACUGCCAAUGCGGGUCCCAAGCUCGGAUAAAAGUGGAGGGGGCGG [C15G C26U] here?
Its self-cleavage is 0.0429.

For AACACUGCCAAUGCGGGUCCCAAGCACGGAUAAAAGUGGAGGGGGCGG [C15G C26A], which self-cleavage is on record?
Its self-cleavage is 0.0956.

With AACACUGCCAAUGCGGGUCCCAGGCCCGGAUAAAAGUGGAGGGGGCGG [C15G A23G] as the variant, how does the self-cleavage read?
Its self-cleavage is 0.0653.

With AACACUGCCAAUGCGGGGCCCAAGCCCGGAUAAAAGUGGAGGGGGCGG [C15G U18G] as the variant, how does the self-cleavage read?
The self-cleavage was 0.0953.

For AACACUGCCAAUGCUGGUCCCGAGCCCGGAUAAAAGUGGAGGGGGCGG [C15U A22G], which self-cleavage is on record?
The self-cleavage was 0.147.

Which self-cleavage does the source give for AACACUGCCAAUGCGGGUCCCAAGCCCGGAUAAAAGUGUAGGGGGCGG [C15G G39U] here?
Its self-cleavage is 0.0441.

For AACACUGCCAAUGCGGGUCCCAAGCCCGGAUAAAAGUGCAGGGGGCGG [C15G G39C], which self-cleavage is on record?
Its self-cleavage is 0.104.

For AACACUGCCAAUGCGGGUCCCAAGCCCGGAUAAAAGUGGAGGGUGCGG [C15G G44U], which self-cleavage is on record?
Its self-cleavage is 0.075.

With AACACUGCCAAUGCGGGUCCCAAGCCCGGAUAAAAGUGGAGGGCGCGG [C15G G44C] as the variant, how does the self-cleavage read?
The self-cleavage was 0.0763.

Which self-cleavage does the source give for AACACUGCCAAUGCGGGUACCAAGCCCGGAUAAAAGUGGAGGGGGCGG [C15G C19A] here?
Its self-cleavage is 0.0812.

For AACACUGCCAAUGCGGGUGCCAAGCCCGGAUAAAAGUGGAGGGGGCGG [C15G C19G], which self-cleavage is on record?
The self-cleavage was 0.0636.

Which self-cleavage does the source give for AACACUGCCAAUGCGGGUCCCAAGCCCGGAUAAAAGUAGAGGGGGCGG [C15G G38A] here?
The self-cleavage was 0.0635.

With AACACUGCCAAUGCGGGUCCCCAGCCCGGAUAAAAGUGGAGGGGGCGG [C15G A22C] as the variant, how does the self-cleavage read?
The self-cleavage was 0.0849.

Which self-cleavage does the source give for AACACUGCCAAUGCGGGUCCCAAGCCCGGCUAAAAGUGGAGGGGGCGG [C15G A30C] here?
The self-cleavage was 0.0706.

Which self-cleavage does the source give for AACACUGCCAAUGCGGGUCCCAAGCCCGGGUAAAAGUGGAGGGGGCGG [C15G A30G] here?
The self-cleavage was 0.123.

For AACACUGCCAAUGCGGGUCCCAAGACCGGAUAAAAGUGGAGGGGGCGG [C15G C25A], which self-cleavage is on record?
The self-cleavage was 0.0585.

For AACACUGCCAAUGCGGGUCCCAAGUCCGGAUAAAAGUGGAGGGGGCGG [C15G C25U], which self-cleavage is on record?
The self-cleavage was 0.165.

With AACACUGCCAAUGCGGGUCCCAAGGCCGGAUAAAAGUGGAGGGGGCGG [C15G C25G] as the variant, how does the self-cleavage read?
The self-cleavage was 0.0786.

With AACACUGCCAAUGCGGGUCCCAAGCCCGGAUAAAAGUGGAGUGGGCGG [C15G G42U] as the variant, how does the self-cleavage read?
The self-cleavage was 0.084.

For AACACUGCCAAUGCGGGUCCCAAGCCCGGAUAAAAGUGGAGAGGGCGG [C15G G42A], which self-cleavage is on record?
The self-cleavage was 0.0628.

Which self-cleavage does the source give for AACACUGCCAAUGCGGGUCCCAAGCCCGGAUAAAAGCGGAGGGGGCGG [C15G U37C] here?
The self-cleavage was 0.114.

For AACACUGCCAAUGCGGGUCCCAAGCCCGGAUAAAAGAGGAGGGGGCGG [C15G U37A], which self-cleavage is on record?
Its self-cleavage is 0.0636.

Which self-cleavage does the source give for AACACUGCCAAUGCGGGUCCCAAGCCCGGAUAAAAGGGGAGGGGGCGG [C15G U37G] here?
Its self-cleavage is 0.143.

Which self-cleavage does the source give for AACACUGCCAAUGCGGGUCCCAAGCCCGGAUGAAAGUGGAGGGGGCGG [C15G A32G] here?
The self-cleavage was 0.0996.

For AACACUGCCAAUGCGGGUCCCAAGCCCGGAUUAAAGUGGAGGGGGCGG [C15G A32U], which self-cleavage is on record?
The self-cleavage was 0.0633.

With AACACUGCCAAUGCGGGUCCCAAGCCCUGAUAAAAGUGGAGGGGGCGG [C15G G28U] as the variant, how does the self-cleavage read?
The self-cleavage was 0.761.

With AACACUGCCAAUGCGGGUCCCAAGCCCGGAUAAAUGUGGAGGGGGCGG [C15G A35U] as the variant, how does the self-cleavage read?
The self-cleavage was 0.0985.

For AACACUGCCAAUGCGGGUCCCAAGCCCGUAUAAAAGUGGAGGGGGCGG [C15G G29U], which self-cleavage is on record?
Its self-cleavage is 0.11.

With AACACUGCCAAUGCGGGUCCCAAGCCCGGAUAGAAGUGGAGGGGGCGG [C15G A33G] as the variant, how does the self-cleavage read?
The self-cleavage was 0.0911.

Which self-cleavage does the source give for AACACUGCCAAUGCGGGUCCCAAGCCCGGAUACAAGUGGAGGGGGCGG [C15G A33C] here?
Its self-cleavage is 0.0859.

With AACACUGCCAAUGCAGGUCCCAAGCCCGGAGAAAAGUGGAGGGGGCGG [C15A U31G] as the variant, how does the self-cleavage read?
Its self-cleavage is 0.76.

For AACACUGCCAAUGCGGGUCCCAAGCCAGGAUAAAAGUGGAGGGGGCGG [C15G C27A], which self-cleavage is on record?
Its self-cleavage is 0.198.

Which self-cleavage does the source give for AACACUGCCAAUGCGGGUCCCAAGCCUGGAUAAAAGUGGAGGGGGCGG [C15G C27U] here?
The self-cleavage was 0.094.

Which self-cleavage does the source give for AACACUGCCAAUGCGGGUCCCAAGCCGGGAUAAAAGUGGAGGGGGCGG [C15G C27G] here?
Its self-cleavage is 0.0738.

Which self-cleavage does the source give for AACACUGCCAAUGCGGGUCCCAAGCCCGGAUAAAAGUGGAGGGGGCGA [C15G G48A] here?
Its self-cleavage is 0.0877.

For AACACUGCCAAUGCGGGUCCCAAGCCCGGAUAAAAGUGGAGGGGGCGU [C15G G48U], which self-cleavage is on record?
Its self-cleavage is 0.0875.

Which self-cleavage does the source give for AACACUGCCAAUGCAGGUCCCAAGCCCGGAUAAAAGAGGAGGGGGCGG [C15A U37A] here?
The self-cleavage was 0.129.

For AACACUGCCAAUGCAGGUCCCAAGCCCGGAUAAAAGCGGAGGGGGCGG [C15A U37C], which self-cleavage is on record?
Its self-cleavage is 0.168.
